# In article PMC10925046, “TERRA-LSD1 phase separation promotes R-loop formation for telomere maintenance in ALT cancer cells”:
# Legend:
# LSD1 deltaIDR;CoREST = LSD1 deltaIDR;CoREST (human;human?, UniProt O60341;Q9UKL0 171-852;289-485, |); assay: pull-down; EMSA: 4 C, 5 min, 0.75% agarose in 1x THE pH 7.4 (34 mM Tris, 66 mM HEPES, 0.1 mM EDTA) + 0.1 M K acetate, RNA folded in 10 mM Tris pH 7.4, 100 mM KCl, 1 mM TCE
# LSD1 deltaIDR 3KE;CoREST = LSD1 deltaIDR 3KE;CoREST (human;human?, UniProt O60341;Q9UKL0 171-852;289-485, K355E;K357E;K359E|); assay: as above
binder,measurement,setting,value
UUAGGGUUAGGGUUAGGGUUAGGGUUAGGGUUAGGGUUAGGGUUAGGG (structured_RNA) [biotin-TERRA (UUAGGG)8],binding result,LSD1 deltaIDR;CoREST,binds
same,binding result,LSD1 deltaIDR 3KE;CoREST,no binding
